# Results as given in US20020192789.
# Positions count from the first letter of the chain named.
# B1: recombinant light chain enterokinase (Novagen, Madison, Wis.) (protein)
# chain: IVGGSDSREGAWPWVVALYFDDQQVCGASLVSRDWLVSAAHCVYGRNMEPSKWKAVLGLHMASNLTSPQIETRLIDQIVINPHYNKRRKNNDIAMMHLEMKVNYTDYIQPICLPEENQVFPPGRICSIAGWGALIYQGSTADVLQEADVPLLSNEKCQQQMPEYNITENMVCAGYEAGGVDSCQGDSGGPLMCQENNRWLLAGVTSFGYQCALPNRPGVYARVPRFTEWIQSFLH
# Tests used:
# DINDDRSLF = target: T1, DINDDRSLF
# T1 chain: DINDDRSLF
# [1] = target: T2, GDDDDKIYV (positive control test peptide)
# T2 chain: GDDDDKIYV
# GNYTDRYFI = target: T3, GNYTDRYFI
# T3 chain: GNYTDRYFI
# [2] = target: T4, phage isolate 5-H11 display polypeptide
# T4 chain: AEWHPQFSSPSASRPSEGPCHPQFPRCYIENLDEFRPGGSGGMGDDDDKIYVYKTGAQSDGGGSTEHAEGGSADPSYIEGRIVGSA
# GNYTDRMFI = target: T5, GNYTDRMFI
# T5 chain: GNYTDRMFI
# GNYTDRRFI = target: T6, GNYTDRRFI
# T6 chain: GNYTDRRFI
# [3] = target: T7, … (negative control test peptide)
# T7 chain: AVLSNVMFI
# [4] = target: T8, phage isolate 5-B05 display polypeptide
# T8 chain: T4 chain with M43S, G44L, D48R, K49T, I50V, Y51S, V52P, Y53K, K54F, T55W
# [5] = target: T9, phage isolate 5-A08 display polypeptide
# T9 chain: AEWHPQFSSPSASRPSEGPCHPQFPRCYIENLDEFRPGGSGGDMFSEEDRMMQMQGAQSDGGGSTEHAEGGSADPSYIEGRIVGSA
# [6] = target: T10, phage isolate 5-H04 display polypeptide
# T10 chain: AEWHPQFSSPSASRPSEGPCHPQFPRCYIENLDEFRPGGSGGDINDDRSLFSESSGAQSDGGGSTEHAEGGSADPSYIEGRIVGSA
# NKAKDRMFI = target: T11, NKAKDRMFI
# T11 chain: NKAKDRMFI
# GDDDDK-β-naphthylamine = target: T12, GDDDDK-β-naphthylamine
# T12 chain: GDDDDK
# [7] = target: 17 isolates from rounds 2-5 of screening exhibiting the Asp-Arg motif before the scissile bond (P2-P1)
protein,measurement,setting,value
B1,Cleavage Rate,DINDDRSLF,1.43 nmol/min
same,rate relative to standard substrate,DINDDRSLF,3.1
same,ratio (Va/Vb) against reference peptide GDDDDK-βNA (relative kcat/Km),DINDDRSLF,30
same,Cleavage Rate,[1],0.34 nmol/min
same,rate relative to standard substrate,[1],0.7
same,ratio (Va/Vb) against reference peptide GDDDDK-βNA (relative kcat/Km),[1],1
same,Cleavage Rate,GNYTDRYFI,0.24 nmol/min
same,rate relative to standard substrate,GNYTDRYFI,0.5
same,"enterokinase cleavage rate (phage ELISA, release from streptavidin)",[2],the cleavage rate for the (Asp)4-Lys-containing recognition sequence 5-H11 (SEQ ID NO:194) was slower than for at least three of the other isolates
same,Cleavage Rate,GNYTDRMFI,0.81 nmol/min
same,rate relative to standard substrate,GNYTDRMFI,1.8
same,ratio (Va/Vb) against reference peptide GDDDDK-βNA (relative kcat/Km),GNYTDRMFI,3.5
same,Cleavage Rate,GNYTDRRFI,0.18 nmol/min
same,rate relative to standard substrate,GNYTDRRFI,0.4
same,"enterokinase cleavage (HPLC, mass spectroscopy)",[3],No cleavage occurred with the negative control peptide (SEQ ID NO:198)
same,"enterokinase cleavage rate (phage ELISA, release from streptavidin)",[4],"the cleavage rate for ... 5-H11 (SEQ ID NO:194) was slower than for at least three of the other isolates, i.e., 5-A08 (SEQ ID NO:137), 5-B05 (SEQ ID NO:145) and 5-H04 (SEQ ID NO:188)"
same,"enterokinase cleavage rate (phage ELISA, release from streptavidin)",[5],"the cleavage rate for ... 5-H11 (SEQ ID NO:194) was slower than for at least three of the other isolates, i.e., 5-A08 (SEQ ID NO:137), 5-B05 (SEQ ID NO:145) and 5-H04 (SEQ ID NO:188)"
same,"enterokinase cleavage rate (phage ELISA, release from streptavidin)",[6],isolate 5-H04 (SEQ ID NO:188) shown in Table 5 was the most readily cut
same,Cleavage Rate,NKAKDRMFI,0.26 nmol/min
same,rate relative to standard substrate,NKAKDRMFI,0.6
same,Cleavage Rate,GDDDDK-β-naphthylamine,0.46 nmol/min
same,rate relative to standard substrate,GDDDDK-β-naphthylamine,1
same,cleavage at 300 nM enterokinase (phage ELISA),[7],All of the phage isolates were readily cleaved when the enterokinase concentration was raised to 300 nM
